Assay results published in the supplement of paper PMC10065799, “High-throughput profiling of sequence recognition by tyrosine kinases and SH2 domains using bacterial peptide display” (eLife, 2023).

What follows are sequences tested on AncSZ (assay: phosphorylation enrichment, bacterial display (enrichment ratio); higher = better substrate or ligand; peptides without Tyr show the background).
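Further: 11-residue human phosphosite peptides and single-mutation variants displayed on the E. coli surface, counted by deep sequencing, each peptide's frequency after selection divided by its frequency in the unselected input library; frequency after pTyr selection over input frequency; kinase dosed for 20-30% of maximal phosphorylation in three min.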

In order of falling phosphorylation enrichment:
1. RYLTRYIYNRE [HLA-DQB1_Y62_V59L]  1.91
2. PSDPSYEDTRE [BMPR1A_Y467_M470T]  1.66
3. LLIVEYAKYGS [RET_Y806]  1.52
4. ANAYIYVVQLP [L1CAM_Y420]  1.33
5. DEEFEYMNRRR [ERBB3_Y1199_YF]  1.3
6. NGSFLYVIISQ [LRP1B_Y1988_R1987L]  1.27
7. PPPPAYDDMAQ [TNK2_Y635_V638M]  1.25
8. PLRAYYLIARV [HLCS_Y635_D634Y]  1.17
9. RAFRHYLLKQK [SCN2A_Y1919_R1918H_YF]  1.16
10. ESMQSYDLDYP [UNC13B_Y243_D238E]  1.16
11. RTCSSYAIEKI [PARP15_Y520]  1.13
12. TTPGPYRSIFF [MPG_Y71_YF]  1.07
13. RSAGKYDVFFI [MECP2_Y120_L124F_YF]  1.03
14. SVVVPCEPPEV [TP53_Y220_Y220C]  0.998
15. SLESAYPEVSQ [TTF1_Y357_G360V]  0.951
16. RGMVMYTSKDR [ZG16B_Y136]  0.941
17. GGPTYYIDTNA [ACTL6A_Y69]  0.885
18. TNDRLYLRSLE [MTM1_Y71_Y68D]  0.881
19. EATKVYLDDPT [G6PD_Y322_G321V]  0.852
20. EATKGHLDDPT [G6PD_Y322_Y322H]  0.851
21. KPLMPCMRYSR [SMARCE1_Y73_Y73C]  0.821
22. AEVDTYCRHNY [HLA-DRB1_Y107_A103E]  0.771
23. IKAGAYDFPSL [CAMK2A_Y230_P235L]  0.761
24. FGYPGYQCKHY [TIMP3_Y177_S179C]  0.718
25. PVKAAYQKVVA [HBB_Y131_Q128K]  0.714
26. FRIGPYQPSVP [MATR3_Y784_N787S_YF]  0.712
27. KDHPDYKFQRR [SOX10_Y171_P175R_YF]  0.696
28. QQPGPYDRPGA [HNRNPH2_Y210_R206Q]  0.683
29. MSSHHCDYKKY [ZNF445_Y428_Y428C]  0.633
30. SRLDSYVRSLP [TRAPPC1_Y133]  0.579
31. AHAGEHGAEAL [HBA1_Y25_Y25H]  0.521
32. EQKKYYNATKK [SCN5A_Y1495_M1498T]  0.478
33. SGPRRYTIATL [TTR_Y125_A129T]  0.472

What follows are sequences tested against EPHB1 (UniProt P54762) in the same assay as above.
EPHB1, sequence (P54762 whole entry, looked up): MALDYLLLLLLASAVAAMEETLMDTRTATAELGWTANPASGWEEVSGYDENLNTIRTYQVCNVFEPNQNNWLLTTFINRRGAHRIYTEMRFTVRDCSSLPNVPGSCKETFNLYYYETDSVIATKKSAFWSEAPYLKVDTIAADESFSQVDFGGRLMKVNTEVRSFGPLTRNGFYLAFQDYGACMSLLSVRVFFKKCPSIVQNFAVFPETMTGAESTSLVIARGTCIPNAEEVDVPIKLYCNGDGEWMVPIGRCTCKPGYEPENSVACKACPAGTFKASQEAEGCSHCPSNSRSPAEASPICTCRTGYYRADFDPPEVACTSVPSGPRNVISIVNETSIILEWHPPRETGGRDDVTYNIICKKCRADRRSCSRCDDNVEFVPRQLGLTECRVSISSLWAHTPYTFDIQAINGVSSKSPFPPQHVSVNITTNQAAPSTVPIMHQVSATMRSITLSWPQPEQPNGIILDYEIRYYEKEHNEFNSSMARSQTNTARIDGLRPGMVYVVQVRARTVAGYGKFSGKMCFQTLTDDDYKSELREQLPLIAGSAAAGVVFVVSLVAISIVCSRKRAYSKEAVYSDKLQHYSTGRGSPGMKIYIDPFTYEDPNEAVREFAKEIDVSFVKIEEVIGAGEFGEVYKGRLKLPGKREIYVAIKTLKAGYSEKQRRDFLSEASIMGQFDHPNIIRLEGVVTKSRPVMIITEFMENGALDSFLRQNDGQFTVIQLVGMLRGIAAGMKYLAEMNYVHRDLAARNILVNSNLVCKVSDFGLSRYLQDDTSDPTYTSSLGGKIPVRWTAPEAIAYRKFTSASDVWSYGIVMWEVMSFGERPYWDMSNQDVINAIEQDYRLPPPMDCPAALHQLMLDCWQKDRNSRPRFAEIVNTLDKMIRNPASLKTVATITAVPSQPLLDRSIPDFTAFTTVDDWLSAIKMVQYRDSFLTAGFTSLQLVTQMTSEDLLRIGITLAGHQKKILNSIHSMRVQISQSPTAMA

In order of falling phosphorylation enrichment:
1. RYLTRYIYNRE [HLA-DQB1_Y62_V59L]  4.73
2. SGPRRYTIATL [TTR_Y125_A129T]  1.36
3. PVKAAYQKVVA [HBB_Y131_Q128K]  1.14
4. LLIVEYAKYGS [RET_Y806]  1.12
5. ANAYIYVVQLP [L1CAM_Y420]  0.875
6. NGSFLYVIISQ [LRP1B_Y1988_R1987L]  0.844
7. RAFRHYLLKQK [SCN2A_Y1919_R1918H_YF]  0.793
8. PSDPSYEDTRE [BMPR1A_Y467_M470T]  0.765
9. GGPTYYIDTNA [ACTL6A_Y69]  0.698
10. RSAGKYDVFFI [MECP2_Y120_L124F_YF]  0.651
11. ESMQSYDLDYP [UNC13B_Y243_D238E]  0.651
12. EATKGHLDDPT [G6PD_Y322_Y322H]  0.643
13. RGMVMYTSKDR [ZG16B_Y136]  0.623
14. SRLDSYVRSLP [TRAPPC1_Y133]  0.606
15. FRIGPYQPSVP [MATR3_Y784_N787S_YF]  0.604
16. PLRAYYLIARV [HLCS_Y635_D634Y]  0.543
17. SVVVPCEPPEV [TP53_Y220_Y220C]  0.534
18. RTCSSYAIEKI [PARP15_Y520]  0.532
19. QQPGPYDRPGA [HNRNPH2_Y210_R206Q]  0.528
20. TNDRLYLRSLE [MTM1_Y71_Y68D]  0.514
21. SLESAYPEVSQ [TTF1_Y357_G360V]  0.514
22. TTPGPYRSIFF [MPG_Y71_YF]  0.493
23. EATKVYLDDPT [G6PD_Y322_G321V]  0.482
24. DEEFEYMNRRR [ERBB3_Y1199_YF]  0.481
25. PPPPAYDDMAQ [TNK2_Y635_V638M]  0.441
26. AEVDTYCRHNY [HLA-DRB1_Y107_A103E]  0.428
27. IKAGAYDFPSL [CAMK2A_Y230_P235L]  0.418
28. KPLMPCMRYSR [SMARCE1_Y73_Y73C]  0.404
29. EQKKYYNATKK [SCN5A_Y1495_M1498T]  0.399
30. AHAGEHGAEAL [HBA1_Y25_Y25H]  0.378
31. MSSHHCDYKKY [ZNF445_Y428_Y428C]  0.366
32. KDHPDYKFQRR [SOX10_Y171_P175R_YF]  0.338
33. FGYPGYQCKHY [TIMP3_Y177_S179C]  0.295

These sequences were tested against EPHB2 (UniProt P29323) in the same assay as above.
EPHB2, sequence (P29323 whole entry, looked up): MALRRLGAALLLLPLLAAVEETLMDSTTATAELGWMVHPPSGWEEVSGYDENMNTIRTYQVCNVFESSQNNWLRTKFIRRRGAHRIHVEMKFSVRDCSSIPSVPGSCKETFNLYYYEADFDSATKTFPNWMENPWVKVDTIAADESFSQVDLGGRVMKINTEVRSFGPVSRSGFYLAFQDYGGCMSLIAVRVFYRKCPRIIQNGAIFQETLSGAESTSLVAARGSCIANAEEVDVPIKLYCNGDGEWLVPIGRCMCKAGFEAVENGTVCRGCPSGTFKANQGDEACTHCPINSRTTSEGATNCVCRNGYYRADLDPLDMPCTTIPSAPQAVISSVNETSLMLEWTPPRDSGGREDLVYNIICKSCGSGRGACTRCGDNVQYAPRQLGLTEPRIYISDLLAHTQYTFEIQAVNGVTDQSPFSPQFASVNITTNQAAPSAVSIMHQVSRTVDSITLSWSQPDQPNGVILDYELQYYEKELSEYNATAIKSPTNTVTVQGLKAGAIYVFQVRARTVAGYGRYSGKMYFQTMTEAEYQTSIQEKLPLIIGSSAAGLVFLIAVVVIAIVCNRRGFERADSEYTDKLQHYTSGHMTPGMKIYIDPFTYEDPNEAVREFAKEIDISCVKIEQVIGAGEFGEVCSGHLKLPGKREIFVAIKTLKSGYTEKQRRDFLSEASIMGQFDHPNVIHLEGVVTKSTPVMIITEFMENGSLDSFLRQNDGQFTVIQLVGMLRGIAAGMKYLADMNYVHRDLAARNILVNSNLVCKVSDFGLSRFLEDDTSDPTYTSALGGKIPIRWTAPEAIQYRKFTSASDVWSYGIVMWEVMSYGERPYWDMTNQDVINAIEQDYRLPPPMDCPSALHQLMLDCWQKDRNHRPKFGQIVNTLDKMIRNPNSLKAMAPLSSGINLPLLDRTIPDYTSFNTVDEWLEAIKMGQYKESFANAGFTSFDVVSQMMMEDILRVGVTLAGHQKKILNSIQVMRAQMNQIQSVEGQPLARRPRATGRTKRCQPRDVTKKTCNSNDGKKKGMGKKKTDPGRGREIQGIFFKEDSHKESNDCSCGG

In order of falling phosphorylation enrichment:
1. RAFRHYLLKQK [SCN2A_Y1919_R1918H_YF]  1.67
2. PSDPSYEDTRE [BMPR1A_Y467_M470T]  0.883
3. LLIVEYAKYGS [RET_Y806]  0.872
4. SLESAYPEVSQ [TTF1_Y357_G360V]  0.792
5. RSAGKYDVFFI [MECP2_Y120_L124F_YF]  0.773
6. RYLTRYIYNRE [HLA-DQB1_Y62_V59L]  0.773
7. ANAYIYVVQLP [L1CAM_Y420]  0.735
8. PLRAYYLIARV [HLCS_Y635_D634Y]  0.726
9. RTCSSYAIEKI [PARP15_Y520]  0.702
10. SVVVPCEPPEV [TP53_Y220_Y220C]  0.671
11. NGSFLYVIISQ [LRP1B_Y1988_R1987L]  0.666
12. DEEFEYMNRRR [ERBB3_Y1199_YF]  0.66
13. PPPPAYDDMAQ [TNK2_Y635_V638M]  0.632
14. RGMVMYTSKDR [ZG16B_Y136]  0.597
15. AEVDTYCRHNY [HLA-DRB1_Y107_A103E]  0.559
16. EATKVYLDDPT [G6PD_Y322_G321V]  0.558
17. TTPGPYRSIFF [MPG_Y71_YF]  0.546
18. FRIGPYQPSVP [MATR3_Y784_N787S_YF]  0.543
19. KPLMPCMRYSR [SMARCE1_Y73_Y73C]  0.535
20. ESMQSYDLDYP [UNC13B_Y243_D238E]  0.534
21. FGYPGYQCKHY [TIMP3_Y177_S179C]  0.519
22. GGPTYYIDTNA [ACTL6A_Y69]  0.514
23. QQPGPYDRPGA [HNRNPH2_Y210_R206Q]  0.493
24. IKAGAYDFPSL [CAMK2A_Y230_P235L]  0.493
25. PVKAAYQKVVA [HBB_Y131_Q128K]  0.491
26. EATKGHLDDPT [G6PD_Y322_Y322H]  0.488
27. TNDRLYLRSLE [MTM1_Y71_Y68D]  0.452
28. AHAGEHGAEAL [HBA1_Y25_Y25H]  0.439
29. SRLDSYVRSLP [TRAPPC1_Y133]  0.395
30. KDHPDYKFQRR [SOX10_Y171_P175R_YF]  0.387
31. MSSHHCDYKKY [ZNF445_Y428_Y428C]  0.385
32. EQKKYYNATKK [SCN5A_Y1495_M1498T]  0.383
33. SGPRRYTIATL [TTR_Y125_A129T]  0.344

What follows are sequences tested against FGFR1 (UniProt P11362) in the same assay as above.
FGFR1, sequence (P11362 whole entry, looked up): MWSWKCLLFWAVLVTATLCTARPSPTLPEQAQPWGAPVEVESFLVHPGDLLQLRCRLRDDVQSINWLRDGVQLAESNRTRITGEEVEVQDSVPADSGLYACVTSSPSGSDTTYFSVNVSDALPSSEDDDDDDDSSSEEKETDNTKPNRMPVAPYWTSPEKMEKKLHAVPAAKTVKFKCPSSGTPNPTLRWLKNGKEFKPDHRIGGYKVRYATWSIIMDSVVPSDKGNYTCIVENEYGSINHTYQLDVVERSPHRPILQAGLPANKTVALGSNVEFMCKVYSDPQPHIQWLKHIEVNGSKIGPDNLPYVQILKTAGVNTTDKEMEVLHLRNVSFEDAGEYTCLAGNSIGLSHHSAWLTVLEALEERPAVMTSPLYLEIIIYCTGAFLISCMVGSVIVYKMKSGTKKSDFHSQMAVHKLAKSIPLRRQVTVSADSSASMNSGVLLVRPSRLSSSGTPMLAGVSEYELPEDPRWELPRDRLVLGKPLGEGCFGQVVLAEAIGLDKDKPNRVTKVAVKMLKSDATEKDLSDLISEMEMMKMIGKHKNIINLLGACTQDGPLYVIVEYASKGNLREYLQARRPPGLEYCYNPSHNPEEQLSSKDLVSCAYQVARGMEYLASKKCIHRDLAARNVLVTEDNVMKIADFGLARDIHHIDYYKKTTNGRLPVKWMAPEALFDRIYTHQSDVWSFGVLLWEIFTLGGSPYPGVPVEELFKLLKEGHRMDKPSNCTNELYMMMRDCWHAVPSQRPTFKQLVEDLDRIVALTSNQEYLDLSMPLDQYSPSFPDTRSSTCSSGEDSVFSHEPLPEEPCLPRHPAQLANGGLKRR

In order of falling phosphorylation enrichment:
1. ANAYIYVVQLP [L1CAM_Y420]  1.25
2. PLRAYYLIARV [HLCS_Y635_D634Y]  1.2
3. GGPTYYIDTNA [ACTL6A_Y69]  1.09
4. RSAGKYDVFFI [MECP2_Y120_L124F_YF]  1.02
5. MSSHHCDYKKY [ZNF445_Y428_Y428C]  0.965
6. RAFRHYLLKQK [SCN2A_Y1919_R1918H_YF]  0.955
7. PSDPSYEDTRE [BMPR1A_Y467_M470T]  0.813
8. LLIVEYAKYGS [RET_Y806]  0.804
9. ESMQSYDLDYP [UNC13B_Y243_D238E]  0.698
10. QQPGPYDRPGA [HNRNPH2_Y210_R206Q]  0.66
11. DEEFEYMNRRR [ERBB3_Y1199_YF]  0.591
12. RTCSSYAIEKI [PARP15_Y520]  0.589
13. RYLTRYIYNRE [HLA-DQB1_Y62_V59L]  0.564
14. TTPGPYRSIFF [MPG_Y71_YF]  0.551
15. PVKAAYQKVVA [HBB_Y131_Q128K]  0.539
16. RGMVMYTSKDR [ZG16B_Y136]  0.523
17. FRIGPYQPSVP [MATR3_Y784_N787S_YF]  0.517
18. SVVVPCEPPEV [TP53_Y220_Y220C]  0.517
19. SLESAYPEVSQ [TTF1_Y357_G360V]  0.507
20. PPPPAYDDMAQ [TNK2_Y635_V638M]  0.492
21. AHAGEHGAEAL [HBA1_Y25_Y25H]  0.476
22. NGSFLYVIISQ [LRP1B_Y1988_R1987L]  0.468
23. EATKGHLDDPT [G6PD_Y322_Y322H]  0.467
24. AEVDTYCRHNY [HLA-DRB1_Y107_A103E]  0.461
25. FGYPGYQCKHY [TIMP3_Y177_S179C]  0.46
26. TNDRLYLRSLE [MTM1_Y71_Y68D]  0.438
27. SGPRRYTIATL [TTR_Y125_A129T]  0.432
28. EATKVYLDDPT [G6PD_Y322_G321V]  0.428
29. SRLDSYVRSLP [TRAPPC1_Y133]  0.427
30. IKAGAYDFPSL [CAMK2A_Y230_P235L]  0.41
31. KPLMPCMRYSR [SMARCE1_Y73_Y73C]  0.407
32. EQKKYYNATKK [SCN5A_Y1495_M1498T]  0.343
33. KDHPDYKFQRR [SOX10_Y171_P175R_YF]  0.338
